Assay results published in the nanobody polyreactivity screen of Harvey et al. (2022).

Assay: yeast display, Sf9 membrane polyspecificity reagent, FACS + sequencing; frameworks hold sequencing errors
Summary of the method: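 Using colony PCR, genes from sorted yeast display clones were amplified, then sequenced on MiSeq at 2 × 250 and filtered by CDR length. The clones had been stained with 10% biotinylated, detergent-solubilized Sf9 membrane reagent for 1 hour at 4 °C and sorted by FACS into low and high (top ~1%) gates on anti-HA and streptavidin fluorescence. Polyreactivity labels come from the gate of origin.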

Sequence: QVQLVESGGGLVQAGGSLRLSCAASGRTFFSNAMGWYRQAPGKERELVAVIDSGGSTYYADSVKGRFTISRDNAKNTVYLQMNSLKPEDTAVYYCAADTGTAPSEDYLGQGTQVTVSS
- polyreactivity (PSR sort gate): low polyreactivity

Sequence: QVQLVESGGGLVQAGGSLRLSCAASGYILFAYAMGWYRQAPGKERELVATITTSGGITYYADSVKGRFTISRDNAKNTVYLQMNSLKPEDTAVYYCAAAEGGGLVTYDYWGQGTQVTVSS
- polyreactivity (PSR sort gate): low polyreactivity

Sequence: QVQLVESGGGLVQAGGSLRLSCAASGFIFTIYALGWYRQAPGKERELVAAIDSSGTTYYADSVKGRFTISRDNAKNTVYLQMNSLKPEDTAVYYCNTDIYVQYGWGQGTQVTVSS
- polyreactivity (PSR sort gate): low polyreactivity

Sequence: QVQLVESGGRLVQAGGSLRLSCAASGRIFSPYAMGRYRPAPGKERELVAAITQSGGITSYADSVKGRFTISRDNAKNTVYLQMISLKPEDTAVYYCNKDVWDGYDWPEFDYWGQGTQVTVSS
- polyreactivity (PSR sort gate): low polyreactivity

Sequence: QVQLVESGGGLVQAGGSLRLSCAASGSTFDQYAMGWYRQAPGKDRELVAAISGSGGRTSYADSVKGRFTISRDNAKNTVYLQMNSLKPEDTAVYYCNKASYRISVPRYDYWGQGTQVTVTS
- polyreactivity (PSR sort gate): high polyreactivity

Sequence: QVQLQESGSGLVQAGGSLRLSCAASGAIFPAYLMGWYRQAPGKERELVAGISYGSITYCADSVKGRFNISRDNEKNTVYLQMNSLKPEDTAVYYCAVWRPGGDEYYYWGQGTQVTVSS
- polyreactivity (PSR sort gate): low polyreactivity

Sequence: QVQLVESGGGLVQAGGSLRLSCAASGSIFWVYAMGWSRQAPGKERELVAAISNSGSTNYADSVKGRFTISRDNAKNTVYLQMNSLKPEDTAVYYCAKDSLVDHVGGYDYWGQGTQVTVSS
- polyreactivity (PSR sort gate): low polyreactivity

Sequence: QVQLVESGGGLVQAGGSLRLSCAASGRIFRVYAMGWYRQAPGKERELVAAIRWTGGSTYYADSVKGRFKISRDNAKNTVYLQMNSLKPEDTAVYYCAAGRYYSDGSRTIYDYWGQGTQVTVSS
- polyreactivity (PSR sort gate): low polyreactivity

Sequence: QVQLVESGGGLVQAGGSLRISCAASGLIFADYTMGWYRQAPGKERDLVAVITDGDSTYYADSVKGRFTISRDNAKNTVYLQMNSLKPEDTAVYYCAAELDGSNYTLDYWGQGTQVTVST
- polyreactivity (PSR sort gate): low polyreactivity

Sequence: QVQLVESGGGLVQAGGSLRLSCAASGRTFRYYTMGWYRQAPGKERELVAAITRNGGRTYYADSVKGRFTISRDNAKNTVYLQMNSLKPEDTAVYYCAAGTYDGGYHYDYWGQGTQVTVSS
- polyreactivity (PSR sort gate): high polyreactivity

Sequence: QVQLVESAGGLLQTGGSLRLSCAASGRTLWYNAMGWYRQAPGKERELVAAISSGGSTNYADSVKGRFTISRDNAKHTVYLQMNSLKPEDTAVYYCAAWLAYSSRYGYWGQGTQVTVSS
- polyreactivity (PSR sort gate): low polyreactivity

Sequence: QVQLVESGGGLVQAGGSLRLSCAASGSTSYNAMGWYIQAPGKERELVAAISDGGGSTYYADSVKGRFTISRDNAKNTVYLQMNSLKPEDTAVYYCAADTITGDGYWGQGTQVTVSS
- polyreactivity (PSR sort gate): low polyreactivity

Sequence: QVQLVESGGGLVQAGGSLRLSCAASGFTFVNYVMGWYRQAHGKERELVAAISRSGGSTYYADSVKGRFTISRDNAKNTVYLQMNSLKPEDTAVYYCAARWFYRAGFNYWGQGTQVTVSS
- polyreactivity (PSR sort gate): high polyreactivity

Sequence: QVQLVESGGGLVQAGGSLRLSCAASGSTFTCYAMGWNRQAPRKERELVADITWRDGSTYYADSVKGRFTISRDNAKNTVYLQMNSLKPEDTAVYYCNGRRDYDMDWGQVTQVTVSS
- polyreactivity (PSR sort gate): high polyreactivity

Sequence: QVQLVESGGGLVQEGGSLRLSCAAYGRIFAPYSMGWYRQAPGKERELVAAITSGGSTNYADSVKGRFTISRDNAKNTVYLQMNSLKPEDTSVYYCASEASYNYVKYVVTYVYWGQGTQVTVSS
- polyreactivity (PSR sort gate): high polyreactivity

Sequence: QVHLVESGGGLVQAGGSLSLSCDASGYIISSYVMGWYRQAPGKERELVAAISRRGGSTYYADSVKGRFTISRDNAKNTVYLQMNSLIPEDTAVYYCAADGLSGYGSGRYYGMGYCGQGTQVTVSS
- polyreactivity (PSR sort gate): high polyreactivity

Sequence: QVQLVESGGGLVQAGGSLRLSCAASGSTFGANAMGWYRQAPGKEREFVAAISRSGVRTYYADSVKGRFTISRDNAKNTVYLQMNSLKPEDTAVYYCAADGYWWTYKGQYDYWGQGTQVTVSS
- polyreactivity (PSR sort gate): low polyreactivity

Sequence: QVQLVESGGGLGQAGGSLRLSCAASGLIFVRNDMGWYRQAPGKERELVADISDGSTYADSVKGRFTISRDNAKNTVYLQMNSLKPEDTAVYYCNKDNHDVELPVEFEYWGQGTHVTVSS
- polyreactivity (PSR sort gate): high polyreactivity

Sequence: QVQLVESGGGLVQAGGSLRLSCAASGITFGYNAMGWYRQAPGTEREFVAGISWSGGSTYYADSVKGRFTISRDNAKNTVYLQMNSLKPEDTAVYYCAKLARGGWYGGGRSLSYGYWGQGTQVTVSS
- polyreactivity (PSR sort gate): high polyreactivity

Sequence: QVQLVESGGGLVQAGGSLRLSCAASGSTFFINAMGWYRQGPGKERELVASISYSGGSTYYAHSVKGRFTISRDNAKNTVYLQLNSLKPEDTAVYYCNADVRVFLHYYKYNYWGQGTQVTVSS
- polyreactivity (PSR sort gate): low polyreactivity

Sequence: QVQLVESGGGLVQAGGSLRLSCAASGSIFWRNAMGWYRQAPGKERELVAAITSGGTTNYADSVKGRFTISRDNAKNTVYLQMISLIPEDTAVYYCATGASYLRRYDHPHSDVDYWGQGTQVTVSS
- polyreactivity (PSR sort gate): low polyreactivity

Sequence: QVQLVESGGGLVQAGGSLRLSCAASGRIFRANAMGWYRQAPGKERELVAGITRRGGSTNYADSVKGRFTISRDNAKNTVYLQMNSLKPEDTAVYYCNRDVSLSTSIRMDYWGQGTQVTVSS
- polyreactivity (PSR sort gate): low polyreactivity

Sequence: QVQLVETGGGLVQAGGSLRLSSAASGRIFRNYTMGWYRQAPGKERELVAAISSSGGRTYYADSVKGRFTISRDNEKNTVYLQMNSLKPEDTAVYYCNTDGPTWYPTYDYWGQGTQVTVSS
- polyreactivity (PSR sort gate): high polyreactivity

Sequence: QVQLVESGGGLVQAGGSLRLSCAASGSTFAGYAMGWYRQAPGKERELVATITYSGGTTYYADSVKGRFTISRDTAKNTVFLQMKSLKPEDTAVYYCDNKASYWWGFEYWGQGTQVTVSS
- polyreactivity (PSR sort gate): low polyreactivity

Sequence: QVQLVESGGGLVQAGGSLRLSCAASGYIFVRNAMGWYRQAPGKERELVAAISRTDGTTYYADSVKGRFTISRDNAKNTVYLQMNSLKPEDTAVYYCAADYLRAPYYQYEYWGQGTQVTVSS
- polyreactivity (PSR sort gate): low polyreactivity

Sequence: QVQLVESGGGLVQAGGSLRLSFAASGIILGSYAMGWYRQAPGKERELVAGITSGGGTYYADSVKGRFTISRDNAKNTVYLQMNSLKPEDTAVYYCAKLYLHYYRYGYWGQGTQVTVSS
- polyreactivity (PSR sort gate): low polyreactivity

Sequence: QVQLQESGGGLVQAGGSLRLSCAASGNIVDADIMGWSRQAPGKERELVASITDGGSTNYADSVKGRFTISRDYAKNTVYLQMNSLKPEDTAVYYCAAIAYPDIPTYIDYDSEYFYWGQGTQVTVSS
- polyreactivity (PSR sort gate): low polyreactivity

Sequence: QVQLVESGGGLVQAGGSLRLSCAASGFTLGTYAMGWYRQAPGKERELVAAISRGGGITYYADSVKGRFTISRDNAKNTVYLQMISLKPEDTAVYDCAADWRYWRWAFDYWGQGTQVTVSS
- polyreactivity (PSR sort gate): high polyreactivity

Sequence: QVQLVESGGGLVQAGGSLRLSCAASGFTFGKYAMGWYRPAPAKERELVAAISRSGGSTYYADSVKGRFTISRDIAKNTVYLQMNSLKPEDTAVYYCAAYHPIQEYDYWGQGTQVTVSS
- polyreactivity (PSR sort gate): high polyreactivity

Sequence: QVQLEESGGGLVQAGGSLRLSCAASGIFTRYAMGWYRQAPGKERELVAAISRGGGSTYYADTVKGRFTISRDNAKNTVYLLMNSLKPEDTAVYYCYTYKRPRSPGPKFYYWGQGTQVTVSS
- polyreactivity (PSR sort gate): high polyreactivity

Sequence: QVQLVESGGGLVQAGGSLRLSCAASGSIFYGYAMGWYRQAPGRERELVAAIRYRGGRTDYGDSVKGRFTISRDNAKKTVYLQMNSLKPEDTAVYYCAKDLIRYGYLTYVYWGQGTQVTVSS
- polyreactivity (PSR sort gate): high polyreactivity

Sequence: QVQLVESGGGLVQAGGSLRISCAASGSIFWRYVMGWYRPAPGKERELIAAISSGGGITYYADSVKGRFTISRDNAKNTVYLQMNSLKPEDTAVYYCAARTYRGQYYTGFGFGYWGQGSQVTVSS
- polyreactivity (PSR sort gate): high polyreactivity

Sequence: QVQLVESGGGLVQAGGSLRLSCAASGRTFLYNAMGWYRQAPGKERELVAAISWSGGSTYYADSVKGRFTISRDNAKNTVYLQMNSLKPEDTAVYYCAATGRRSGFYYWGQGTQVTVSS
- polyreactivity (PSR sort gate): high polyreactivity

Sequence: QVQLVESGGGLVQAGGSLRFSCAASGSIFWYNAMGWYRQAPGKERELVARISSSGDSTYYADSVKGRFTISRDNAKNTVYLQMNSLKPEDTAVYYCNVDYWSISESSWGYYTSYDYWGQGTQVTVSS
- polyreactivity (PSR sort gate): high polyreactivity

Sequence: QVQLVESGGGLVQAGGSLRCSCAASGRTFGTYAMGWYRQAPGKERELVAAISTRDGSTYYADSVKGRYTISRDTAKNTVYLQMNSLKPEDTAVYYCNAVVRYYDWGYWDYDYWGQGTQVTVSS
- polyreactivity (PSR sort gate): low polyreactivity

Sequence: QVQLVESGGGLVQAGGSLRLSCAASGRTFKYNAMGWYRQAPGKERELVAAISDRGTRKYYADSVKGRFTISRDNAKNSVYLQMNSLKPEDTAVYYCAARVTGKDRWYIYYWGQGTQVTVSS
- polyreactivity (PSR sort gate): high polyreactivity

Sequence: QVQLVESGGGLVQAGGSLRLSCAASGITFDWNAMGWYRQAPGKEREFVASISRGSGGTYYADSVKGRFTISRDNAKNTVYLQMNSLKPEDTAVYYCAAAVGNTDREYDYWGQGTQVTVSS
- polyreactivity (PSR sort gate): low polyreactivity

Sequence: QVQLVESGGGLVQAGGSLRLSCAASGSTFRYYAMGWYRQAPGKEREFVAAINWSGTSTYYADSVKGRFTISRDNAKNTVYLQMNRLKPEDTAVYYCNARYGLRYVRYGEMDYWGQGTQVTVSA
- polyreactivity (PSR sort gate): high polyreactivity

Sequence: QVQLVESGGGLVQAGGSLRLSCAASGLTFNYYDRGWYRQAPGKERELVAAISRSRTNTSYADSVKGRFTISRDNAKNTVYLQMNSLKPEDTAVYYCNAAGVYLAAGPYTANFNYNYWGQGTQVTVSS
- polyreactivity (PSR sort gate): low polyreactivity

Sequence: QVQLVESGGGLVQAGGSLRLSCAASGRIFHVNAMGWYRQAPGKERELVAAISTSGGRTYYADSVKGRFTISRDNAKNTVYLQLNSLKPEVTAVYYCAAVSRAPGLRYDYWGQGTQVTVSS
- polyreactivity (PSR sort gate): high polyreactivity

Sequence: QVQLVESGGGLVQAGGSLRLSCAASGYTFAFYAMGWYRQAPGKERELVAAISAGGGRTYYADSVKGRFTISRDNAKNTVYLQMNSLKPEDTAVYYCATDLIQGAAPFRYDYWGQGTQVTVSS
- polyreactivity (PSR sort gate): low polyreactivity

Sequence: QVQLVESGGGLVQAGGSLRLSCAASGSIFFGNAMGWYRQAPGKERELVAAISTTGGSTYYADSVKGRFTISRDNEKNTVYLQMNSLKPEDTAVYYCNADRATWWEQWWYDYWGHGTQVTVSS
- polyreactivity (PSR sort gate): low polyreactivity

Sequence: QVQLVESGGGLVQAGGSLRLSCAASGNTIIDYAMGWYRQPPGKERELVASITSGGGSTYYADSVKGRFTISRDNAKNTVYLQMNSLKPVDTAVYYCAAERYYSEAIFRSYDYWGQGTQVTVSS
- polyreactivity (PSR sort gate): low polyreactivity
